Experimental data: paper PMC10998613
Read-outs that look alike come from different tables or passages of the source.

T1: CXCR4-AcGFP1 / CXCR4-mCherry (C-X-C motif chemokine receptor 4 with a C-terminal fluorescent protein) (human), P61073
T1 chain: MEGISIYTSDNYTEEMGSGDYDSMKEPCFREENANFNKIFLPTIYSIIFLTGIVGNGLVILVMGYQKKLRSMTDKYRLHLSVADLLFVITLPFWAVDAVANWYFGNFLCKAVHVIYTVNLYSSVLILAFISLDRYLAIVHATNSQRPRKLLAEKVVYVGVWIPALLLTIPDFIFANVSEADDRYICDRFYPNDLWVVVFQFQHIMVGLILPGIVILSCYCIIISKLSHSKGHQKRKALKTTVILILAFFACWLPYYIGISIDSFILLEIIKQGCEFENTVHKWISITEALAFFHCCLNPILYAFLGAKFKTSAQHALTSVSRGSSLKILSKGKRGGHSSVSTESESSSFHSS


Key:
Assay in all cases: PIE-FCCS
[1] = biological target: β2AR-AcGFP1 / β2AR-mCherry (β2-adrenergic receptor with a C-terminal fluorescent protein) (human) (UniProt P07550)
[2] = biological target: β2AR-AcGFP1 / β2AR-mCherry (β2-adrenergic receptor with a C-terminal fluorescent protein) (human) (UniProt P07550); remark: listed apart in the source
[3] = biological target: T1, CXCR4-AcGFP1 / CXCR4-mCherry (C-X-C …); conditions: remark: other sources report otherwise
[4] = biological target: T1, CXCR4-AcGFP1 / CXCR4-mCherry (C-X-C …); conditions: remark: other sources report otherwise

fc [1] | fc [2] | median fc [3] | mean fc [4] | median fc [4] | Molecule
0.13 | 0.11 |  |  |  | β2AR-AcGFP1 / β2AR-mCherry (β2-adrenergic receptor with a C-terminal fluorescent protein) (from UniProt P07550 1-413)
 |  | 0.18 | 0.39 | 0.31 | CXCR4-AcGFP1 / CXCR4-mCherry (C-X-C motif chemokine receptor 4 with a C-terminal fluorescent protein), P61073 1-352 (receptor) MEGISIYTSDNYTEEMGSGDYDSMKEPCFREENANFNKIFLPTIYSIIFLTGIVGNGLVILVMGYQKKLRSMTDKYRLHLSVADLLFVITLPFWAVDAVANWYFGNFLCKAVHVIYTVNLYSSVLILAFISLDRYLAIVHATNSQRPRKLLAEKVVYVGVWIPALLLTIPDFIFANVSEADDRYICDRFYPNDLWVVVFQFQHIMVGLILPGIVILSCYCIIISKLSHSKGHQKRKALKTTVILILAFFACWLPYYIGISIDSFILLEIIKQGCEFENTVHKWISITEALAFFHCCLNPILYAFLGAKFKTSAQHALTSVSRGSSLKILSKGKRGGHSSVSTESESSSFHSS
